Data: patent US20180371086A1 (Gilead, published 2018)

What was measured:
Experiment in all cases: cell-based or functional assay
[1] = molecular target: HIV-1 Env of virus MGRM-AG-007 (HIV-1)
[2] = molecular target: HIV-1 Env of virus MGRM-AG-001 (HIV-1)
[3] = molecular target: HIV-1 Env of virus MGRM-AG-008 (HIV-1)
[4] = molecular target: HIV-1 Env of virus MGRM-D-014 (HIV-1)
[5] = molecular target: HIV-1 Env of virus MGRM-D-001 (HIV-1)
[6] = molecular target: HIV-1 Env of virus MGRM-F1-010 (HIV-1)
[7] = molecular target: HIV-1 Env of virus MGRM-F1-018 (HIV-1)
[8] = molecular target: HIV-1 Env of virus MGRM-F1-020 (HIV-1)
[9] = molecular target: HIV-1 Env of virus MGRM-F1-016 (HIV-1)
[10] = molecular target: HIV-1 Env of virus MGRM-F1-004 (HIV-1)
[11] = molecular target: HIV-1 Env of virus MGRM-F1-012 (HIV-1)
[12] = molecular target: HIV-1 Env of virus MGRM-F1-006 (HIV-1)
[13] = molecular target: HIV-1 Env of virus MGRM-G-014 (HIV-1)
[14] = molecular target: HIV-1 Env of virus MGRM-G-019 (HIV-1)
[15] = molecular target: HIV-1 Env of virus MGRM-G-024 (HIV-1)
[16] = molecular target: HIV-1 Env of virus MGRM-G-011 (HIV-1)
[17] = molecular target: HIV-1 Env of virus MGRM-Chronic-B-006 (HIV-1)
[18] = molecular target: HIV-1 Env of virus MGRM-Chronic-B-023 (HIV-1)
[19] = molecular target: HIV-1 Env of virus MGRM-Chronic-B-003 (HIV-1)
[20] = molecular target: HIV-1 Env of virus MGRM-Chronic-B-009 (HIV-1)
[21] = molecular target: HIV-1 Env of virus MGRM-Acute-B-007 (HIV-1)
[22] = molecular target: HIV-1 Env of virus MGRM-Chronic-B-005 (HIV-1)
[23] = molecular target: HIV-1 Env of virus MGRM-Chronic-B-001 (HIV-1)
[24] = molecular target: HIV-1 Env of virus MGRM-Chronic-B-015 (HIV-1)
[25] = molecular target: HIV-1 Env of virus MGRM-C-026 (HIV-1)
[26] = molecular target: HIV-1 Env of virus MGRM-C-011 (HIV-1)
[27] = molecular target: HIV-1 Env of virus MGRM-C-027 (HIV-1)
[28] = molecular target: HIV-1 Env of virus MGRM-C-004 (HIV-1)
[29] = molecular target: HIV-1 Env of virus MGRM-C-005 (HIV-1)
[30] = molecular target: HIV-1 Env of virus MGRM-C-002 (HIV-1)
[31] = molecular target: HIV-1 Env of virus MGRM-C-012 (HIV-1)
[32] = molecular target: HIV-1 Env of virus MGRM-C-024 (HIV-1)
[33] = molecular target: HIV-1 Env of virus MGRM-C-007 (HIV-1)
[34] = molecular target: HIV-1 Env of virus MGRM-C-018 (HIV-1)
[35] = molecular target: HIV-1 Env of virus MGRM-C-013 (HIV-1)
[36] = molecular target: HIV-1 Env of virus MGRM-C-020 (HIV-1)
[37] = molecular target: HIV-1 Env of virus MGRM-A-014 (HIV-1)
[38] = molecular target: HIV-1 Env of virus MGRM-A-002 (HIV-1)
[39] = molecular target: HIV-1 Env of virus MGRM-A-009 (HIV-1)
[40] = molecular target: HIV-1 Env of virus MGRM-A-012 (HIV-1)
[41] = molecular target: HIV-1 Env of virus MGRM-A-013 (HIV-1)
[42] = molecular target: HIV-1 Env of virus MGRM-A-003 (HIV-1)
[43] = molecular target: HIV-1 Env of virus MGRM-AG-006 (HIV-1)

B1: PGT121.60 hIgG1/hLambda (antibody)
heavy: QMQLQESGPGLVKPSETLSLTCSVSGASISDSYWSWIRRSPGKGLEWIGYVHKSGDTNYNPSLKSRVHLSLDTSKNQVSLSLTGVTAADSGKYYCARTLHGRRIYGIVAFNEWFTYFYMDVWGTGTQVTVSSASTKGPSVFPLAPSSKSTSGGTAALGCLVKDYFPEPVTVSWNSGALTSGVHTFPAVLQSSGLYSLSSVVTVPSSSLGTQTYICNVNHKPSNTKVDKKVEPKSCDKTHTCPPCPAPELLAGPDVFLFPPKPKDTLMISRTPEVTCVVVDVSHEDPEVKFNWYVDGVEVHNAKTKPREEQYNSTYRVVSVLTVLHQDWLNGKEYKCKVSNKALPLPEEKTISKAKGQPREPQVYTLPPSREEMTKNQVSLTCLVKGFYPSDIAVEWESNGQPENNYKTTPPVLDSDGSFFLYSKLTVDKSRWQQGNVFSCSVLHEALHSHYTQKSLSLSPGK
light: not shown
PGT121.60 IC50 [1]: 0.108 µg/mL | PGT121.60 IC50 [2]: 1.44 µg/mL | PGT121.60 IC50 [3]: 1.71 µg/mL | PGT121.60 IC50 [4]: 1.9 ng/mL | PGT121.60 IC50 [5]: 0.431 µg/mL | PGT121.60 IC50 [6]: 0.0125 µg/mL | PGT121.60 IC50 [7]: 0.0201 µg/mL | PGT121.60 IC50 [8]: 0.041 µg/mL | PGT121.60 IC50 [9]: 0.522 µg/mL | PGT121.60 IC50 [10]: 0.547 µg/mL | PGT121.60 IC50 [11]: 1.19 µg/mL | PGT121.60 IC50 [12]: 2.33 µg/mL | PGT121.60 IC50 [13]: 3.4 ng/mL | PGT121.60 IC50 [14]: 9.1 ng/mL | PGT121.60 IC50 [15]: 0.0119 µg/mL | PGT121.60 IC50 [16]: 1.91 µg/mL | PGT121.60 IC50 [17]: 2 ng/mL | PGT121.60 IC50 [18]: 3.4 ng/mL | PGT121.60 IC50 [19]: 7.9 ng/mL | PGT121.60 IC50 [20]: 0.0112 µg/mL | PGT121.60 IC50 [21]: 0.0255 µg/mL | PGT121.60 IC50 [22]: 0.072 µg/mL | PGT121.60 IC50 [23]: 0.0985 µg/mL | PGT121.60 IC50 [24]: 0.185 µg/mL | PGT121.60 IC50 [25]: 0.4 ng/mL | PGT121.60 IC50 [26]: 1.2 ng/mL | PGT121.60 IC50 [27]: 3.8 ng/mL | PGT121.60 IC50 [28]: 6.4 ng/mL | PGT121.60 IC50 [29]: 7.8 ng/mL | PGT121.60 IC50 [30]: 9.5 ng/mL | PGT121.60 IC50 [31]: 0.0338 µg/mL | PGT121.60 IC50 [32]: 0.0826 µg/mL | PGT121.60 IC50 [33]: 0.199 µg/mL | PGT121.60 IC50 [34]: 10.3 µg/mL | PGT121.60 IC50 [35]: 12.3 µg/mL | PGT121.60 IC50 [36]: 14.9 µg/mL | PGT121.60 IC50 [37]: 1 ng/mL | PGT121.60 IC50 [38]: 4.7 ng/mL | PGT121.60 IC50 [39]: 7.4 ng/mL | PGT121.60 IC50 [40]: 0.0397 µg/mL | PGT121.60 IC50 [41]: 0.0561 µg/mL | PGT121.60 IC50 [42]: 0.0865 µg/mL | PGT121.60 IC50 [43]: 0.0106 µg/mL
